Results as given in the supplement of paper PMC10724198.
± gives the standard deviation of the averaged measurements.
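Also: PSI is a weighted mean of sequencing reads over stability bins, variants kept only with over 10 reads, mCherry proximal and sfGFP distal, peptide attached via GGGS linker.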

Each sequence was assayed on Saccharomyces cerevisiae (assay: protein stability index of tFT-peptide fusion (C-terminal peptide) (PSI (0-1 scale)); higher = more stable (slower turnover)). Conditions: genetic background: wild type; temperature: 30 C.
VATVSLSVRNTS gave a protein stability index of 0.66 ± 0.033.
Sequence VAVGLGRAVFGV has a protein stability index of 0.611 ± 0.034.
For VAVWGGSGDWGR, the protein stability index was 0.729 ± 0.068.
With VCAEGAAYSDKA the protein stability index was 0.646 ± 0.038.
VCAFGFPAASRV showed a protein stability index of 0.6627 ± 0.0046.
In the case of VCFSVSWSGLSC, the protein stability index is reported as 0.681 ± 0.009.
With VCGALRWCGGPD the protein stability index was 0.705 ± 0.018.
VCGLRFLLFGCG showed a protein stability index of 0.63 ± 0.021.
Work on VCIGVGGVVLGL yielded a protein stability index of 0.642 ± 0.039.
Sequence VCKQASDSKLQG has a protein stability index of 0.663 ± 0.023.
Sequence VCLRVGQGVLWW has a protein stability index of 0.727 ± 0.021.
VCLVCLFNACRF was tested, and the protein stability index was 0.608 ± 0.032.
VCLVNWLCFFCV showed a protein stability index of 0.529 ± 0.037.
VCPPSPTLKPPP showed a protein stability index of 0.624 ± 0.011.
In the case of VCRRSVLHSCWS, the protein stability index is reported as 0.678 ± 0.0097.
With VCRTLAPCIRWR the protein stability index was 0.633 ± 0.063.
VCSLSCVGIWYW gave a protein stability index of 0.625 ± 0.0039.
For VCTRACFLFAYP, the protein stability index was 0.582 ± 0.015.
For VDCYIFPGIGAL, the protein stability index was 0.701 ± 0.041.
Work on VDHWVCWCGGWV yielded a protein stability index of 0.731 ± 0.0098.
In the case of VDINYVIGRIRS, the protein stability index is reported as 0.642 ± 0.0087.
With VDRAFVWYLRDL the protein stability index was 0.695 ± 0.0076.
Work on VDRDWFLKRDSH yielded a protein stability index of 0.711 ± 0.031.
VDTTISVCCSVC was tested, and the protein stability index was 0.68339 ± 0.00029.
Work on VDVSGIKAGRPW yielded a protein stability index of 0.681 ± 0.011.
For VEAFIVDETRVV, the protein stability index was 0.6984 ± 0.0064.
VEAGDYAWDEAA was tested, and the protein stability index was 0.657 ± 0.056.
VECVPFAPPRPH showed a protein stability index of 0.68 ± 0.14.
VEEKDNNVRYVL gave a protein stability index of 0.697 ± 0.025.
VEHVRIGGGGKS gave a protein stability index of 0.7 ± 0.013.
With VEQISYATIAFV the protein stability index was 0.608 ± 0.061.
Work on VERIALIPASRQ yielded a protein stability index of 0.706 ± 0.035.
With VERRNAVGTDEK the protein stability index was 0.611 ± 0.063.
Sequence VEVCLLRRWFGL has a protein stability index of 0.667 ± 0.055.
VEWGGDGVFWTG gave a protein stability index of 0.8 ± 0.023.
In the case of VFALFRLSSLDK, the protein stability index is reported as 0.673 ± 0.074.
VFALPPAPPPSP gave a protein stability index of 0.722 ± 0.062.
VFCPGWRKCNDP gave a protein stability index of 0.661 ± 0.043.
VFEVNPRFDKLV gave a protein stability index of 0.758 ± 0.016.
VFFCHFRFTPPS was tested, and the protein stability index was 0.692 ± 0.059.
In the case of VFFDLALRWYGV, the protein stability index is reported as 0.748 ± 0.082.
Sequence VFGDFAIGGLSG has a protein stability index of 0.711 ± 0.077.
Work on VFGLSPLLQPSD yielded a protein stability index of 0.654 ± 0.0086.
Sequence VFGRHSNRSPLY has a protein stability index of 0.808 ± 0.07.
For VFLGCCWVHFFY, the protein stability index was 0.534 ± 0.0062.
For VFLILKPRDLTE, the protein stability index was 0.667 ± 0.01.
VFLSITHFESRV was tested, and the protein stability index was 0.723 ± 0.055.
VFPIISYPHTKS was tested, and the protein stability index was 0.6779 ± 0.0064.
Sequence VFPPRPPRAFPP has a protein stability index of 0.662 ± 0.00098.
VFPYGVSRGALL showed a protein stability index of 0.66 ± 0.011.
VFRFRARRYNES was tested, and the protein stability index was 0.655 ± 0.079.
Sequence VFSFFNFCFCFY has a protein stability index of 0.615 ± 0.06.
In the case of VFSTRLTSWYLT, the protein stability index is reported as 0.555 ± 0.01.
With VFVGCRECKLCA the protein stability index was 0.57592 ± 7.6e-05.
Sequence VFVLEGSSTPRS has a protein stability index of 0.6487 ± 0.0011.
VFVRSTSFLFFG was tested, and the protein stability index was 0.678 ± 0.0097.
VGAAVFGARWGA gave a protein stability index of 0.689 ± 0.037.
With VGACLEVWDGVR the protein stability index was 0.686 ± 0.024.
In the case of VGAEGWAVAGDM, the protein stability index is reported as 0.77 ± 0.078.
For VGAGGSLPLNKV, the protein stability index was 0.6928 ± 0.0062.
VGAPGGVETTKA showed a protein stability index of 0.685 ± 0.015.
For VGARAIITIEFG, the protein stability index was 0.598 ± 0.018.
In the case of VGASFVAVGVEG, the protein stability index is reported as 0.641 ± 0.041.
VGAWGLMLASVV gave a protein stability index of 0.5698 ± 0.0055.
Sequence VGAWRGVLVGGG has a protein stability index of 0.612 ± 0.0068.
Sequence VGCFLDSLWDWV has a protein stability index of 0.679 ± 0.022.
In the case of VGCGCVRGYWFG, the protein stability index is reported as 0.734 ± 0.018.
Work on VGCPKMTKIFFV yielded a protein stability index of 0.594 ± 0.028.
VGCVFVASRLVL was tested, and the protein stability index was 0.627 ± 0.038.
For VGCWLLGYFAHQ, the protein stability index was 0.675 ± 0.0095.
For VGDGAVGKTRGD, the protein stability index was 0.681 ± 0.039.
For VGDVGESMWGLG, the protein stability index was 0.727 ± 0.091.
VGEGWGAMIMQE gave a protein stability index of 0.737 ± 0.038.
For VGEGWWQKGMEV, the protein stability index was 0.676 ± 0.079.
For VGEVLCVGGAFY, the protein stability index was 0.659 ± 0.024.
VGFISRIKSLYV gave a protein stability index of 0.648 ± 0.0096.
In the case of VGGCRVLCVGLG, the protein stability index is reported as 0.651 ± 0.06.
For VGGGCGVRVVVV, the protein stability index was 0.684 ± 0.05.
For VGGGEVRAWGLR, the protein stability index was 0.661 ± 0.008.
VGGGGGGCLVDC was tested, and the protein stability index was 0.653 ± 0.028.
VGGGVGGRDGAS was tested, and the protein stability index was 0.659 ± 0.051.
Sequence VGGRGGGRGVVG has a protein stability index of 0.672 ± 0.0073.
VGGRLRECVRVG gave a protein stability index of 0.628 ± 0.078.
VGGRVGERRGAP showed a protein stability index of 0.656 ± 0.044.
Work on VGGVWGGGWGHW yielded a protein stability index of 0.736 ± 0.021.
With VGGWGGFGLFFP the protein stability index was 0.742 ± 0.098.
In the case of VGIGLTLSLRFS, the protein stability index is reported as 0.598 ± 0.0066.
For VGLGEWMGALGV, the protein stability index was 0.6634 ± 0.006.
VGLGFVVNAPGL was tested, and the protein stability index was 0.73 ± 0.1.
With VGLRPPRPAPPS the protein stability index was 0.623 ± 0.035.
For VGMCVGEVVAIV, the protein stability index was 0.521 ± 0.015.
VGPDGFWGVVLG showed a protein stability index of 0.719 ± 0.023.
In the case of VGPVGSVGVGGR, the protein stability index is reported as 0.654 ± 0.013.
Work on VGPWQVQRLLWT yielded a protein stability index of 0.623 ± 0.056.
VGRLGPMVGLLL showed a protein stability index of 0.6 ± 0.083.
Work on VGRRDNHPTEKT yielded a protein stability index of 0.73 ± 0.025.
VGRRTRGHDGVT showed a protein stability index of 0.659 ± 0.078.
VGSGEVFEVMEG showed a protein stability index of 0.64 ± 0.036.
Sequence VGSSSRSLFWCF has a protein stability index of 0.689 ± 0.04.
Sequence VGSWSVICGGVL has a protein stability index of 0.6929 ± 0.0061.
VGTGPGLKRPCH showed a protein stability index of 0.774 ± 0.035.
In the case of VGVEIKITKEKK, the protein stability index is reported as 0.739 ± 0.038.
Sequence VGVGPVGDVWLI has a protein stability index of 0.6979 ± 0.0027.
VGWRCWVGSVGL was tested, and the protein stability index was 0.6686 ± 0.0029.
Work on VGYGRGGAVGVE yielded a protein stability index of 0.695 ± 0.012.
VHLCLPPLPLHT was tested, and the protein stability index was 0.651 ± 0.019.
VHPHPRSIKRER showed a protein stability index of 0.6324 ± 0.0026.
VIARALGLFLSD showed a protein stability index of 0.693 ± 0.035.
VIEIGEYSGNGK showed a protein stability index of 0.707 ± 0.046.
For VIFFLPWYTPHP, the protein stability index was 0.6919 ± 0.0023.
With VIGSKQERRAEK the protein stability index was 0.6905 ± 0.0016.
In the case of VIGWSGGCRWSV, the protein stability index is reported as 0.73 ± 0.027.
VIKESKKKTKKI gave a protein stability index of 0.544 ± 0.044.
VIPYLISSLYAV gave a protein stability index of 0.691 ± 0.13.
In the case of VIRDISAFSQVV, the protein stability index is reported as 0.677 ± 0.07.
For VKGRKNEGPGKR, the protein stability index was 0.748 ± 0.065.
Sequence VKGYGLILQISV has a protein stability index of 0.56537 ± 0.00043.
VKKHRQTNGMVY was tested, and the protein stability index was 0.739 ± 0.018.
Sequence VKVYHVPSTFSV has a protein stability index of 0.681 ± 0.029.
VLCGALRIVGHK showed a protein stability index of 0.603 ± 0.017.
In the case of VLCKDGHRGFGC, the protein stability index is reported as 0.589 ± 0.057.
With VLCLRSNRHGVF the protein stability index was 0.698 ± 0.015.
For VLCRVALWGVGG, the protein stability index was 0.653 ± 0.02.
In the case of VLEGAWPGAEAV, the protein stability index is reported as 0.722 ± 0.083.
VLFCQLFCDFFG gave a protein stability index of 0.631 ± 0.084.
In the case of VLFGLFAPCFLF, the protein stability index is reported as 0.59 ± 0.019.
VLFGSVSCCLLW showed a protein stability index of 0.686 ± 0.043.
VLFLLSGPAILL showed a protein stability index of 0.682 ± 0.0075.
VLFSSDLIVPQL showed a protein stability index of 0.725 ± 0.018.
Work on VLGGLGWVCWVV yielded a protein stability index of 0.531 ± 0.013.
VLGLALYTLSTS was tested, and the protein stability index was 0.68 ± 0.041.
Work on VLLAVGELFRVD yielded a protein stability index of 0.649 ± 0.0084.
With VLLEGCQSYVIW the protein stability index was 0.652 ± 0.03.
Sequence VLLLGYDRGWDD has a protein stability index of 0.718 ± 0.015.
VLLLLPASTPSL was tested, and the protein stability index was 0.696 ± 0.079.
Work on VLMGAGGHSWER yielded a protein stability index of 0.725 ± 0.037.
In the case of VLNCVGLSLLVE, the protein stability index is reported as 0.6068 ± 0.00076.
Sequence VLPPLPGPPTLS has a protein stability index of 0.6945 ± 0.0033.
Work on VLPPPRHPLPRP yielded a protein stability index of 0.698 ± 0.04.
VLSCCTAVAYPF gave a protein stability index of 0.593 ± 0.028.
For VLSLLPSLLPPF, the protein stability index was 0.7408 ± 0.0061.
In the case of VLSSSPFLHFGC, the protein stability index is reported as 0.663 ± 0.072.
Work on VLSVGQVGRCVS yielded a protein stability index of 0.642 ± 0.043.
VLTWGLLGRSAF was tested, and the protein stability index was 0.729 ± 0.063.
VLYCYPYLVLPP showed a protein stability index of 0.678 ± 0.013.
Sequence VNATDYDGQPIT has a protein stability index of 0.679 ± 0.11.
VNENNQKGNKKT showed a protein stability index of 0.654 ± 0.12.
VNIHVCSYGIFA gave a protein stability index of 0.5071 ± 0.0025.
Work on VNKNKKNVEYIK yielded a protein stability index of 0.657 ± 0.013.
VNQVRVSICDLL showed a protein stability index of 0.69263 ± 0.00047.
Sequence VPCLVHEVYDEV has a protein stability index of 0.732 ± 0.029.
VPFPHALLSALP gave a protein stability index of 0.638 ± 0.037.
VPGIGGGVSVRG gave a protein stability index of 0.612 ± 0.14.
VPLCSGKLAQIS showed a protein stability index of 0.757 ± 0.0085.
Sequence VPLPPPFPASLT has a protein stability index of 0.61 ± 0.027.
VPPHSLPPPTHP gave a protein stability index of 0.753 ± 0.048.
Work on VPPPPPSRSRPV yielded a protein stability index of 0.713 ± 0.032.
Work on VPPPTRRTPPAP yielded a protein stability index of 0.734 ± 0.052.
VPPVLRPLPPSP was tested, and the protein stability index was 0.72 ± 0.025.
With VPRFTPYRAIFP the protein stability index was 0.591 ± 0.016.
